Consider 35 molecules from US20190224279A1, “PHARMACEUTICAL ASSOCIATION COMPRISING A GROWTH FACTOR RECEPTOR AGONIST CONJUGATED TO A BIOACTIVE CARRIER FOR CONVERTING A NEOPLASTIC CELL INTO A NON-NEOPLASTIC CELL AND USES THEREOF” (HISTIDE AG, priority 2015, published 2019).

No end group written: not given here.

This assay concerns the target growth factor receptors. As to the kind of experiment: cell-based or functional assay.
VPEKMSSLSILFFDENKNVVLKVYPNMAVS (not fully specified) [GFR-binding compound of SEQ ID NO: 73] returned a p-Smad1/5/8 (%) of 44%. The same measure for VPEKMSSLSILFFDENKNAALKVYPNMTVE (not fully specified) [GFR-binding compound of SEQ ID NO: 92]: 52%; for RNVQCRPTQLEPLPIVYYEIVRKKPEQLSNTLE (not fully specified) [GFR-binding compound of SEQ ID NO: 95]: 29%. Take VPARLSPISILYIDAANNVVYKQYEDM (not fully specified) [GFR-binding compound of SEQ ID NO: 74]: the p-Smad1/5/8 (%) is 51%.

TPTKMSPINMLYFNEKNNIIYGKIPGM (not fully specified) [GFR-binding compound of SEQ ID NO: 94] displayed a p-Smad1/5/8 (%) of 41%.

Regarding TQVQLEPLTLLYYDENEKVIEQLSNDMVVE (not fully specified) [GFR-binding compound of SEQ ID NO: 71], the p-Smad1/5/8 (%) was 47%. The value for SRVHHNAISTLYFDESSNVILKKYRGMSVVE (not fully specified) [GFR-binding compound of SEQ ID NO: 91] was 56%; that for VPARLSPISILYIDAANNVVYKQYEDMVKS (not fully specified) [GFR-binding compound of SEQ ID NO: 93] was 44%; that for APTKLEPLTIVYYDDSSNVIEQLSNNMVVR (not fully specified) [GFR-binding compound of SEQ ID NO: 88] was 32%. Consider VPQALSPISILFIVGRKPKVYKQYEMIVERS (not fully specified) [GFR-binding compound of SEQ ID NO: 89], for which the p-Smad1/5/8 (%) was found to be 41%. In the case of VPTELSPISILFIRIKPHQGHLGEMSAAVVE (not fully specified) [GFR-binding compound of SEQ ID NO: 70], the p-Smad1/5/8 (%) was found to be 30%. The value for VPQALSPINMLYFNEKNQIIYGKIPFLQHNK (not fully specified) [GFR-binding compound of SEQ ID NO: 75] was 54%; that for ASASPSSVPQDLEPLTILYYVGRTPKVEQLSNMVEDH (not fully specified) [GFR-binding compound of SEQ ID NO: 80] was 34%; that for APTQLSAISTLYLEIVRKKPLKNYQFLQHNK (not fully specified) [GFR-binding compound of SEQ ID NO: 77] was 52%. In turn, APTKLEPLPMVYYEERRNVIEQLSNNMVVR (not fully specified) [GFR-binding compound of SEQ ID NO: 86] showed a p-Smad1/5/8 (%) of 34%.

As for VPTHHSAISMLYLELGGDKPLENYQFLQ (not fully specified) [GFR-binding compound of SEQ ID NO: 97], the p-Smad1/5/8 (%) was 46%. The same measure for ASASPSSVPQDLEPLTILYYVGRTPKVEQLSNMV (not fully specified) [GFR-binding compound of SEQ ID NO: 65]: 38%. Molecule TPTKMSPINMLYFNEKNNIIYGKIPGMVVD (not fully specified) [GFR-binding compound of SEQ ID NO: 76] came in with a p-Smad1/5/8 (%) of 55%.

VPTKLSAISTLYLDLAREEPLKNYQEMVVE (not fully specified) [GFR-binding compound of SEQ ID NO: 87] showed a p-Smad1/5/8 (%) of 38%. The same measure for VPQALNAISTLYFDDSSNVILKKYRNMAVS (not fully specified) [GFR-binding compound of SEQ ID NO: 72]: 48%; for VPTHHSAISTLYLELAGEKPLKNYQFLQHNK (not fully specified) [GFR-binding compound of SEQ ID NO: 96]: 47%. The same measure for VPTKLSPISILYIDKMGVPTYKQYEEGMSVAE (not fully specified) [GFR-binding compound of SEQ ID NO: 82]: 35%; for VPARLSPISILYIDEMGVPTYKQYEEGMSVAE (not fully specified) [GFR-binding compound of SEQ ID NO: 83]: 33%; for VPQALSPISILYIDDMGVPTYKQYEEGMSVAE (not fully specified) [GFR-binding compound of SEQ ID NO: 68]: 39%. The value for VPTKLSPISILYIDDMGVPTYKQYEEGMSVAE (not fully specified) [GFR-binding compound of SEQ ID NO: 67] was 40%; that for APTQLSAISTLYLEIVRKKPLKNYQEMEDH (not fully specified) [GFR-binding compound of SEQ ID NO: 78] was 58%. In the case of RNVQCRPTQLEPLPIVYYEIVRKKPEQLSNTLEDHLA (not fully specified) [GFR-binding compound of SEQ ID NO: 81], the p-Smad1/5/8 (%) is 41%. The value for RNVQCRPTQLEPLPIVYYEIVRKKPEQLSNTLEDHLA (not fully specified) [GFR-binding compound of SEQ ID NO: 66] was 38%; that for VPTELSPISILFIVGGKPKVYKQYENMVVE (not fully specified) [GFR-binding compound of SEQ ID NO: 90] was 36%; that for VSQDLSAISTLYLKIVRKEPLKNYQEMVEE (not fully specified) [GFR-binding compound of SEQ ID NO: 98] was 39%.

As for VPQALSPISILFIRLKPHQGHLGEMSNMVVR (not fully specified) [GFR-binding compound of SEQ ID NO: 85], the p-Smad1/5/8 (%) was 26%. The same measure for NDEGLECVPTEERPVQVRKIRIKPHQGQKKATVFLQHNK (not fully specified) [GFR-binding compound of SEQ ID NO: 64]: 36%; for NDEGLECVPTEERPVQVRKIRIKPHQGQKKATVFLQHNK (not fully specified) [GFR-binding compound of SEQ ID NO: 79]: 27%. The same measure for VPTEESNITTQIMRIKPHQGQHIGEMSFLQH (not fully specified) [GFR-binding compound of SEQ ID NO: 84]: 22%; for VPTEESNITTQIMRIKPHQGQHIGEMSFLQH (not fully specified) [GFR-binding compound of SEQ ID NO: 69]: 32%.
